Assay results published in article PMC3956856, “Interaction of Kinase-Interaction-Motif Protein Tyrosine Phosphatases with the Mitogen-Activated Protein Kinase ERK2” (PLoS ONE, 2014).
“Also recorded” adds a separate entry of the source. Read-outs that look alike come from different tables or passages of the source.

Experiments:
HePTP (Homo sapiens) = HePTP (Homo sapiens) (UniProt P35236); details: cited from earlier work
[1] = molecular target: DUSP16 MKBD MKBD (Homo sapiens) (UniProt Q9BY84); experiment: ITC; details: cited from earlier work
PTPSL (Homo sapiens) = PTPSL (Homo sapiens) (UniProt Q15256); details: cited from earlier work
Sequence of PTPSL (Homo sapiens) (Q15256 22-657): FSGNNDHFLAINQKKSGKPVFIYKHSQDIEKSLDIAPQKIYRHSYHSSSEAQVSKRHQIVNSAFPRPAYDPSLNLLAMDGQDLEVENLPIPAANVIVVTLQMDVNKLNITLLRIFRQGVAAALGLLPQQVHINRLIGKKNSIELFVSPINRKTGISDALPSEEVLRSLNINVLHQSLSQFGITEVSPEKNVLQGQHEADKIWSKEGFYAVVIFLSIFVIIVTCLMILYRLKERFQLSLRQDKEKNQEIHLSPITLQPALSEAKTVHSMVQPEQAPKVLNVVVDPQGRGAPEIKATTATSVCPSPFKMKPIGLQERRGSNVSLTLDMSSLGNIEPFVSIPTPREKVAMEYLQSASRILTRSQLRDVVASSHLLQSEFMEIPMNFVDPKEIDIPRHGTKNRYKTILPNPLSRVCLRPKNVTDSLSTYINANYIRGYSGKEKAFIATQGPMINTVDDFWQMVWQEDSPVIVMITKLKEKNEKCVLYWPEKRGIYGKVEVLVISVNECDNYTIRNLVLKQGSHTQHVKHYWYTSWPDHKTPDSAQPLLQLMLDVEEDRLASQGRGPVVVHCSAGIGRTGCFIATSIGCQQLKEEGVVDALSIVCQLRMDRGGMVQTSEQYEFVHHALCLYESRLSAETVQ

ERK2 [2] = molecular target: T1, ERK2 (Rattus norvegicus, UniProt P63086); experiment: Isothermal titration calorimetry with ERK2; type: binding
T1 construct: gene Mapk1; made in house
Method: The PTPSLKIM peptide (residues 331–348), STEPKIM (residues 213–229) and STEPKIMKIS (residues 213–256) were synthesized, HPLC purified and verified by mass spectrometry (MS) (>98% purity; Biosynthesis, Inc.). Expression and purification of ERK2 and PTPSLKIMKIS (residues 332–373) was carried out as previously described, [15]. PTPSL (residues 332–655, human), STEP (residues 213–539, mouse) and PSChimera (PTPSL residues 332–373 with STEP residues 257–539; gene synthesized by DNA 2.0) were expressed and purified using the protocol previously described in detail for STEPCAT (residues 244–539). The DUSP16 MAPK binding domain (residues 5–138, human) was expressed and purified as previously described. All purified proteins were stored at −80 °C until use at which point they were thawed and exchanged into the appropriate buffer using size exclusion chromatography (SEC; Superdex 75 26/60; GE Healthcare). The final protein buffer was dependent on the experiment performed. For ITC experiments, the final SEC purification was performed in ITC buffer (10 mM Tris pH 7.5, 150 mM NaCl, 0.1 mM EDTA, 0.5 mM TCEP); for SAXS experiments, the final SEC purification was performed in SAXS buffer (50 mM HEPES pH 6.8, 150 mM NaCl, 5 mM dithiothreitol). PTPSLKIM, STEPKIM and STEPKIMKIS peptides were solubilized in ITC buffer prior to ITC measurements.
ITC experiments were performed at 25 °C using a VP-ITC microcalorimeter (Microcal Inc.). Titrant (10 μL per injection) was injected into the sample cell over a period of 20 seconds with a 250 second interval between titrations to allow for complete equilibration and baseline recovery. 28 injections were delivered during each experiment and the solution in the sample cell was stirred at 307 rpm to ensure rapid mixing. To determine the thermodynamic parameters (ΔH, ΔS, ΔG) and binding constants (K) of the ERK2:PTPSLKIM, ERK2:PTPSL, ERK2:STEP and ERK2:PSChimera interactions, PTPSLKIM, PTPSL, STEP and PSChimera were titrated into ERK2. To determine the same parameters for the ERK2:STEPKIM, ERK2:PTPSLKIMKIS and ERK2:STEPKIMKIS interaction, ERK2 was titrated into the peptides. Titrants were chosen based on the amount of purified protein/peptide available for the experiment. For all titrations the concentrations were slightly varied to ensure independence of the Kd from the protein/peptide concentrations. Data were analyzed with a one-site binding model assuming a binding stoichiometry of 1∶1 using Origin 7.0 software. A nonlinear least-squares algorithm and the titrant and sample cell concentrations were used to fit the heat flow per injection to an equilibrium binding equation, providing values of the stoichiometry (n), change in enthalpy (ΔH) and binding constant (K). All data were repeated in triplicate.

ERK2 [3] = molecular target: T1, ERK2; experiment: SAXS of resting-state complexes with ERK2; details: ERK2:STEP; 24 GASBOR envelopes, DAMAVER; on Dmax shorter than that of the ERK2:HePTP complex: values in Å; on Dmax, P(r) function: values in Å; on Rg smaller than that of the ERK2:HePTP resting-state complex: values in Å
ERK2 [4] = molecular target: T1, ERK2; experiment: SAXS of resting-state complexes with ERK2; on Dmax shorter than that of the ERK2:HePTP complex: values in Å; on Dmax, P(r) function: values in Å; on Rg smaller than that of the ERK2:HePTP resting-state complex: values in Å
Method: To form the ERK2:STEP resting-state complex, purified, unphosphorylated ERK2 was incubated in a 1∶1 molar ratio with purified STEP213-539 at room temperature for 30 minutes and purified using SEC (Superdex 75 26/60 [GE Healthcare]; SAXS buffer). Data for the ERK2:STEP complex were recorded on samples at 0.7, 1.2 and 1.7 mg/ml. All samples were prepared within 48 hours of data acquisition and stored on ice at 4 °C. All samples were filtered ([…], Whatman) immediately prior to data collection. All data was recorded at Beamline X9A at the National Synchrotron Light Source (NSLS) using a Dectris Pilatus 300k (3.4 m distance from the sample for SAXS) and a Photonic Science CCD (0.47 m from the sample for WAXS) detector. 20 μl of sample was continuously flowed through a 1 mm diameter capillary and exposed to an X-ray beam for 30 seconds. Normalization for beam intensity, buffer subtraction and merging of the data from both detectors were carried out using PRIMUS [20]. A Guinier approximation, I(q) = I(0)exp(-q^2Rg ^2/3), where a plot of ln[I(q)] and q^2 is linear for q<1.3/Rg (q is the scattering vector q = 4πsin(θ)/λ; λ, wavelength of X-rays and 2θ is the angle between the incident beam and the scattering X-rays) was performed on at least four independent scattering trials and averaged to determine the radius of gyration (Rg). The linearity of the Guinier region and the intensity at zero scattering angle, I(0), were used to validate that all samples were monodisperse in solution. I(0)/c, where c is concentration, was consistent for all measurements. GNOM [21] was used to determine the pair-distribution function, P(r), for the ERK2:STEP resting-state complex using data collected on the 1.7 mg/ml sample. Twenty-four envelopes were generated using GASBOR [22] and were aligned and averaged using the DAMAVER program suite.

[5] = molecular target: T2, extracellular signal-regulated kinase 2 (ERK2), unphosphorylated (UniProt P63086 1-358); experiment: ITC; PTPSLKIM, PTPSL, STEP or PSChimera titrated into ERK2 in the cell; 25 °C; 10 mM Tris pH 7.5, 150 mM NaCl, 0.1 mM EDTA, 0.5 mM TCEP; one-site model; triplicate; details: both partners purified
T2 construct: ERK2 (extracellular signal-regulated kinase 2), unphosphorylated; also called MAPK; source: final SEC (Superdex 75 26/60)

p38α [6] = details: values previously published, ref [14], [15], [17], [18], cited from earlier work
From the text: We used ITC measurements to determine the binding affinity of STEP and PTPSL for unphosphorylated ERK2 ( Table 1; Figure S1). […] This complex has a ∼3-times lower Kd (tighter binding) than the next tightest complex, ERK2:PTPSL, and a nearly 70-fold greater affinity than the weakest complex, p38α:HePTP [15]. Like STEP, PTPSL binds ERK2 more tightly (∼3.5-fold) than p38α. We also tested peptides that include the kinase specificity s ... || We also generated a chimeric protein in which we fused the PTPSLKIMKIS to STEPCAT (PSchimera; Figure 1A ). […] Thus, they only adopt a single conformation when they bind their respective MAPKs. This is different from the MAPK-binding domains (MKBD) of MAPK phosphatases (MKP; dual specificity phosphatases; DUSPs), [26]. In MKPs, the KIM sequence is part of a stable, folded domain and thus adopts a single, ordered conformation in both the unbound and MAPK-bound states, [28]. […] Our ... || (+ 1 further places)

p38α [7] = details: cited from earlier work
From the text: Although there are a few structural differences between ERK2 and p38α in this region (e.g., the activation loop is six residues longer in ERK2), nearly all residues that that we sh ... || The KIM domains of KIM-PTPs are intrinsically disordered in solution [14], [15]. Thus, they only adopt a single conformation when they bind their respective MAPKs. This is different from the MAPK-binding domains (MKBD) of MAPK phosphatases (MKP; dual specificity phosphatases; DUSPs), [26]. In MKPs, the KIM sequence is part of a stable, folded domain and thus adopts a single, ordered conformation in both the unbound and MAPK-bound states, [28]. […] Our ...

[8] = molecular target: T2, extracellular signal-regulated kinase 2 …; experiment: ITC; DUSP16 MKBD and ERK2, which was the titrant is not stated; 25 °C; ITC buffer; one-site model; triplicate; details: both partners purified

Sequence of HePTP (Homo sapiens) (P35236 whole entry): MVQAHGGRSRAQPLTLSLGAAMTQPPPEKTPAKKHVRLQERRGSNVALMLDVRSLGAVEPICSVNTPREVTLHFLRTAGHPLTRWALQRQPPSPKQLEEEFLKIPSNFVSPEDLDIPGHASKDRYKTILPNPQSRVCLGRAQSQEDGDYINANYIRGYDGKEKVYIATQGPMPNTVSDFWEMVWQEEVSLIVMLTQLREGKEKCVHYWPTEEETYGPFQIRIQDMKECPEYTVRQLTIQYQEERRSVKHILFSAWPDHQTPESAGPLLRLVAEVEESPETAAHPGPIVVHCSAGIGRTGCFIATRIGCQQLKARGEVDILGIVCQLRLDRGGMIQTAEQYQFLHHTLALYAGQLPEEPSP

## ERK2 (from UniProt P63086)
HePTP (Homo sapiens)
  Kd: 370 nM

## p38α (from UniProt Q16539)
[1]
  Kd: 900 nM
PTPSL (Homo sapiens)
  Kd: 380 nM

B1: STEP (residues 213-539, mouse) (domain or fragment, UniProt P54830 213-539, looked up)
chain: MGLQERRGSNVSLTLDMCTPGCNEEGFGYLVSPREESAHEYLLSASRVLRAEELHEKALDPFLLQAEFFEIPMNFVDPKEYDIPGLVRKNRYKTILPNPHSRVRLTSPDPEDPLSSYINANYIRGYSGEEKVYIATQGPIVSTVADFWRMVWQERTPIIVMITNIEEMNEKCTEYWPEEQVVHDGVEITVQKVIHTEDYRLRLISLRRGTEERSLKHYWFTSWPDQKTPDRAPPLLHLVREVEEAAQQEGPHCSPIIVHCSAGIGRTGCFIATSICCQQLRREGVVDILKTTCQLRQDRGGMIQTCEQYQFVHHAMSLYEKQLSLQS
notes: STEP (PTPN5, striatal enriched protein tyrosine phosphatase), mouse, residues 213-539 (KIM, KIS and catalytic domain); The results loosely call this construct 'full-length STEP'; the construct is residues 213-539; also called STEP_(213-539); PTPN5; source: final SEC
ERK2 [2]; ERK2, ITC
  relative binding to ERK2 (in words): tightest binding complex of all MAPK:KIM-PTP complexes tested; also recorded: more strongly than does HePTP
ERK2 [2]; ERK2, ITC, versus STEPKIM
  tighter binding to ERK2 than the STEPKIM peptide: 11 times
ERK2 [2]; ERK2:STEP versus ERK2:PTPSL
  lower Kd (tighter binding) than the next tightest complex, ERK2:PTPSL: ~3 times
ERK2 [2]; ITC Kd, ERK2 versus p38α
  tighter binding to ERK2 than to p38α: ~12 times
  tighter binding to ERK2 than to p38α (fold difference in affinity): 12 fold
ERK2 [2]; ITC, ERK2 versus p38α
  affinity for ERK2 compared with p38α (in words): higher binding affinity for ERK2 than for p38α; also recorded: bind more strongly to ERK2
ERK2 [2]; unphosphorylated ERK2, ITC, 25 °C, 10 mM Tris pH 7.5, 150 mM NaCl, 0.1 mM EDTA, 0.5 mM TCEP, average and standard deviation, triplicate
  TΔS: -19.7 ± 2.0 kcal/mol
ERK2 [3]
  NSD, structure modeling: 1.31±0.05
ERK2 [4]; ERK2:STEP resting-state complex, GNOM, 1.7 mg/ml sample
  Dmax, P(r) function: 95 Å
ERK2 [4]; ERK2:STEP resting-state complex, GNOM, 1.7 mg/ml sample, Q-range 0.013–0.303 Å^−1
  Rg, P(r) function calculation: 31.1 Å
ERK2 [4]; ERK2:STEP versus ERK2:HePTP
  Dmax shorter than that of the ERK2:HePTP complex: ~15 Å
  Rg smaller than that of the ERK2:HePTP resting-state complex: ~3.0 Å
ERK2 [4]; ERK2:STEP versus p38α:STEP resting-state complex
  Rg and Dmax compared with p38α:STEP complex (in words): highly similar to those determined for the p38α:STEP resting-state complex
ERK2 [4]; ERK2:STEP, 24 GASBOR envelopes
  χ^2, structure modeling: 2.3±0.2
ERK2 [4]; resting-state complex, SAXS
  shape of the complex with ERK2 (in words): compact; also recorded: more compact, globular complexes
[5]
  Kd: 48 nM
  dH: -29.5 kcal/mol
p38α [6]
  Kd: 577 ± 71 nM

B2: STEPCAT: STEPCAT (residues 244–539), catalytic domain of STEP (protein, UniProt P54829 244-539, looked up, fragment)
chain: GSNVSLTLDMCTPGCNEEGFGYLMSPREESAREYLLSASRVLQAEELHEKALDPFLLQAEFFEIPMNFVDPKEYDIPGLVRKNRYKTILPNPHSRVCLTSPDPDDPLSSYINANYIRGYGGEEKVYIATQGPIVSTVADFWRMVWQEHTPIIVMITNIEEMNEKCTEYWPEEQVAYDGVEITVQKVIHTEDYRLRLISLKSGTEERGLKHYWFTSWPDQKTPDRAPPLLHLVREVEEAAQQEGPHCAPIIVHCSAGIGRTGCFIATSICCQQLRQEGVVDILKTTCQLRQDRGGMI
modifications: catalytic domain
notes: STEPCAT (residues 244–539), catalytic domain of STEP
p38α [7]; NMR spectroscopy, ref [14]
  interaction with p38α by NMR (in words): interacts directly with p38α

B3: DUSP16 MAPK binding domain (residues 5-138, human) (domain or fragment, UniProt Q9BY84 5-138, looked up)
chain: MIGTQIVTERLVALLESGTEKVLLIDSRPFVEYNTSHILEAININCSKLMKRRLQQDKVLITELIQHSAKHKVDIDCSQKVVVYDQSSQDVASLSSDCFLTVLLGKLEKSFNSVHLLAGGFAEFSRCFPGLCEG
notes: also called DUSP16 MKBD; DUSP16 MKB domain; source: final SEC
ERK2 [2]; ITC Kd, ERK2 versus p38α
  weaker binding to ERK2 than to p38α (difference in Kd): ~1.4 fold
ERK2 [2]; ITC, ERK2 versus p38α
  affinity for ERK2 compared with p38α (in words): binds these MAPKs with similar affinities; also recorded: binds both MAPKs with similar affinities
[8]
  Kd: 1300 nM
  dH: -4.8 kcal/mol
p38α [7]; NMR, MAPK-binding domain, ref [18]
  interaction with p38α by NMR (in words): interacts at multiple positions with p38α
p38α [6]; listed as DUSP16MKBD-KIM
  Kd: 890 ± 230 nM
p38α [6]
  Kd: ~900 nM
